Values of other authors as cited in PMC7500696.

Biological target: tropomyosin N-terminal peptide N-terminal fragment (UniProt P09493)
Test: CD

Kd: 1000 nM
Substance: Leiomodin-2 Lmod2s1 Lmod2s1 (from UniProt Q3UHZ5)
